Legend:
[1] = target: T1, hPD-1-hIgGFc抗原 (human, UniProt Q15116 25-167, limits assumed); assay: competition ELISA, hPD-1-hIgGFc coated, competitor PDL1-mIgG2aFc 0.6 μg/ml
[2] = target: T1, hPD-1-hIgGFc抗原; assay: competition ELISA, hPD-1-hIgGFc coated, competitor PDL2-his tag 0.6 μg/ml
[3] = target: hPD-1-his抗原 (human, UniProt Q15116 25-167, limits assumed); assay: ELISA, hPD-1-his coated 0.25 μg/ml
Chain of hPD-1-his抗原 (Q15116 25-167 limits assumed): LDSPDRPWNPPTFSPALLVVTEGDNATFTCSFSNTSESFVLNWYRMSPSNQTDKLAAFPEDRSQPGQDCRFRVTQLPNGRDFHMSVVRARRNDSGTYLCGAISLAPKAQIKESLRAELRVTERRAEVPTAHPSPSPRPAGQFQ

T1 sequence (Q15116 25-167 limits assumed): as above

IC50 [1]: 1 nM
IC50 [2]: 2.7 nM
EC50 [3]: 0.05 nM
B1: 人源化抗体H8 (抗PD-1的IgG类抗体) (antibody, V domains shown)
VH: EVQLVQSGGGLVQPGGSLKLSCAASGFTFSSYGMSWVRQAPGKGLDWVATISGGGRDTYYPDSVKGRFTISRDNSKNNLYLQMNSLRAEDTALYYCARQKGEAWFAYWGQGTLVTVSA
VL: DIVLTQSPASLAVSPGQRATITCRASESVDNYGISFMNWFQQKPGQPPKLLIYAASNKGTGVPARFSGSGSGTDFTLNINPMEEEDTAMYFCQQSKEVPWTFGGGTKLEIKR
notes: HX009-5 is H8 with linker-SIRPA added to the C-terminus of the heavy chain, and both share the light chain; also called HX008
